Results from PMC7010297, “How the initiating ribosome copes with ppGpp to translate mRNAs” (PLoS Biology, 2020).
Where “and” joins values, the source holds several entries; their conditions need not be identical. Equal entries are not always repeated. Where two headings read alike, the source gives them in different places.

System: 30S subunit (30S IC)
Assay: 30S IC formation by MST, mRNA titration
Type: binding, Escherichia coli
Conditions: for MST Average / MST Replicates (a.u.): Fig 3B; for Kd: Fig 3C, from mRNA titration of 30S IC formation; for 30S IC formation MST signal, Average / 30S IC formation MST signal, replicates: Fig 6D
Excerpt: Fig 1 Bacterial stringent response and experimental approach. (A) Schematics representing the onset of stringent response, (p)ppGpp accumulation, and gene expression regulation. Translation of stress-related mRNAs upon (p)ppGpp accumulating is the focus of the investigation (indicated as the red question mark). (B) Schematics of instrumentation for measuring 30S initiation complex (IC) by fluorescence Microscale Thermophoresis (MST) (provided by Nanotemper Technologies). […] Fluorophore excitation and measurement of the emitted fluorescence, together with IR-mediated perturbation of the equilibrium, are achieved through an objective and dichroic mirror. (C) Time courses of fluorescence showing the equilibrium relaxation upon thermal perturbation at varying ligand concentrations. Blue vertical lines indicate the fluorescence signal readout prior to the equilibrium perturbation (Fi), while vertical red lines indicate the fluorescence signal upon reaching the new equilibrium (Ff). Colored traces represent different concentrations of the titrating mRNA (0.1 to 4 μM). The ratio between the Ff over Fi times 1,000 is the normalized thermophoresis shift (MST). The dependency of MST shift on ligand concentration allows to estimate KD constants of the interaction using a hyperbolic or quadratic function and nonlinear regression fitting. MST measurements (closed circles) are indicated in the same colors as their respective time traces in (C). (D) Formation of 30S IC measured by MST. Time traces of thermophoresis (S1 Fig) were used to calculate MST values for all four combinations of mRNA start codons and labeled tRNAs for dependencies on mRNA concentration. […] Closed symbols indicate that Bpy-Met-tRNA^fMet was used, while open symbols correspond to Bpy-Phe-tRNA^Phe. Continuous lines indicate nonlinear regression fittings. Three to four measurements were performed; mean and error bars representing standard deviations are plotted (S1 Data).
To monitor the interaction of initiator tRNA and 30S ribosomal subunits, we used Microscale Thermophoresis (MST) with a fluorescently labelled initiator tRNA (Bpy-tRNAi) (Fig 1B). MST allows to measure fluorescence in a constrained space. Changes on the readout derive from molecular drifts resulting from small thermal equilibrium perturbations. Upon equilibrium perturbations, the patterns of Bpy-tRNAi migration away from the observation space are related to bound and unbound states (Fig 1B). […] On the contrary, a decrease in thermophoresis indicated the dissociation of Bpy-tRNAi. The relation between fluorescence measured at both equilibriums (Ff to Fi, after and prior to the perturbation, respectively) as a function of ligand concentration allowed to determine dissociation constants of the interaction (Fig 1C).
By observing the bound state of Bpy-tRNAi to the 30S subunit, MST could be measuring either IC, 30S pre-IC, or 30S IC, as they are identical in terms of ligand composition. […] To unambiguously assign which step is monitored by MST, we used different combinations of start codons and fluorescent tRNAs.
MST was calculated from the respective fluorescence time dependencies (S3 Fig). […] Symbols as in (B). […] Continuous lines indicate nonlinear regression fittings with quadratic (B and E) or same-site competition (G) functions. Three measurements were performed; mean and standard deviations are plotted (S1 Data).

[1] = Fig 3D, efficiency of 30S IC formation

B1: mTufA: TufA mRNA with full-length 5′ UTR, in vitro transcribed, codes for EF-Tu (nucleic acid)
chain: GGUUCUAUCGCCUUUAAAGAAGGCUUUAAGAAAGCGAAACCAGUUCUGCUUGAGCCGAUCAUGAAGGUUGAAGUAGAAACUCCGGAAGAGAACACCGGUGACGUUAUCGGUGACUUGAGCCGUCGUCGUGGUAUGCUCAAAGGUCAGGAAUCUGAAGUUACUGGCGUUAAGAUCCACGCUGAAGUACCGCUGUCUGAAAUGUUCGGAUACGCAACUCAGCUGCGUUCUCUGACCAAAGGUCGUGCAUCAUACACUAUGGAAUUCCUGAAGUAUGAUGAAGCGCCGAGUAACGUUGCUCAGGCCGUAAUUGAAGCCCGUGGUAAAUAAGCCUAAGGGUUAAUACCAAAGUCCCGUGCUCUCUCCUGAAGGGGAGAGCACUAUAGUAAGGAAUAUAGCCGUGUCUAAAGAAAAAUUUGAACG
In the case of B1, the “MST Average” value (mRNA 0.004 μM) is reported as 969.58 a.u, the “MST Replicates (a.u.)” value (mRNA 0.004 μM) is reported as 968.54 a.u. and 970.25 a.u. and 969.97 a.u and the “MST Average” value (mRNA 0.008 μM) is reported as 969.59 a.u. For the same molecule, the “MST Replicates (a.u.)” value (mRNA 0.008 μM) was 969.28 a.u. and 969.63 a.u. and 969.86 a.u, the “MST Average” value (mRNA 0.016 μM) was 972.78 a.u and the “MST Replicates (a.u.)” value (mRNA 0.016 μM) was 971.79 a.u. and 972.82 a.u. and 973.72 a.u. For the same molecule, the “MST Average” value (mRNA 0.03 μM) was 974.49 a.u, the “MST Replicates (a.u.)” value (mRNA 0.03 μM) was 974.10 a.u. and 974.12 a.u. and 975.24 a.u and the “MST Average” value (mRNA 0.06 μM) was 982.70 a.u. For the same molecule, the “MST Replicates (a.u.)” value (mRNA 0.06 μM) was 982.27 a.u. and 982.61 a.u. and 983.22 a.u, the “MST Average” value (mRNA 0.13 μM) was 997.76 a.u and the “MST Replicates (a.u.)” value (mRNA 0.13 μM) was 996.79 a.u. and 997.90 a.u. and 998.61 a.u. For the same molecule, the “MST Average” value (mRNA 0.25 μM) was 1022.60 a.u, the “MST Replicates (a.u.)” value (mRNA 0.25 μM) was 1021.41 a.u. and 1022.36 a.u. and 1024.04 a.u and the “MST Average” value (mRNA 0.50 μM) was 1057.58 a.u. The “MST Replicates (a.u.)” value (mRNA 0.50 μM) was 1056.44 a.u. and 1057.96 a.u. and 1058.33 a.u, the “MST Average” value (mRNA 1.00 μM) was 1095.54 a.u and the “MST Replicates (a.u.)” value (mRNA 1.00 μM) was 1094.17 a.u. and 1095.62 a.u. and 1096.83 a.u. The “MST Average” value (mRNA 2.00 μM) was 1113.87 a.u, the “MST Replicates (a.u.)” value (mRNA 2.00 μM) was 1113.37 a.u. and 1113.82 a.u. and 1114.42 a.u and the Kd (read-out: Kd (μM) of the mRNA, Average) was 0.19 µM. The Kd (read-out: Kd (μM) of the mRNA, single replicate) was 0.19 µM and 0.18 µM, the “MST Amplitude (a.u.), Average” value [1] was 165.04 a.u and the “MST Amplitude (a.u.), single replicate” value [1] was 165.44 a.u. and 164.97 a.u. and 164.70 a.u. For the same molecule, the “30S IC formation MST signal, Average” value (mRNA 0.001 µM) was 934.16, the “30S IC formation MST signal, replicates” value (mRNA 0.001 µM) was 933.97 and 934.33 and 934.18 and the “30S IC formation MST signal, Average” value (mRNA 0.002 µM) was 931.08. For the same molecule, the “30S IC formation MST signal, replicates” value (mRNA 0.002 µM) was 929.08 and 931.16 and 933.00, the “30S IC formation MST signal, Average” value (mRNA 0.004 µM) was 929.10 and the “30S IC formation MST signal, replicates” value (mRNA 0.004 µM) was 927.65 and 929.57 and 930.10. For the same molecule, the “30S IC formation MST signal, Average” value (mRNA 0.008 µM) was 927.54, the “30S IC formation MST signal, replicates” value (mRNA 0.008 µM) was 923.84 and 929.70 and 929.07 and the “30S IC formation MST signal, Average” value (mRNA 0.016 µM) was 926.63. For the same molecule, the “30S IC formation MST signal, replicates” value (mRNA 0.016 µM) was 924.56 and 926.45 and 928.88, the “30S IC formation MST signal, Average” value (mRNA 0.031 µM) was 928.44 and the “30S IC formation MST signal, replicates” value (mRNA 0.031 µM) was 928.15 and 928.36 and 928.82. For the same molecule, the “30S IC formation MST signal, Average” value (mRNA 0.062 µM) was 934.74, the “30S IC formation MST signal, replicates” value (mRNA 0.062 µM) was 934.59 and 934.05 and 935.59 and the “30S IC formation MST signal, Average” value (mRNA 0.125 µM) was 947.53. The “30S IC formation MST signal, replicates” value (mRNA 0.125 µM) was 949.07 and 946.54 and 946.98, the “30S IC formation MST signal, Average” value (mRNA 0.25 µM) was 962.80 and the “30S IC formation MST signal, replicates” value (mRNA 0.25 µM) was 964.74 and 961.64 and 962.03. For the same molecule, the “30S IC formation MST signal, Average” value (mRNA 0.5 µM) was 989.99, the “30S IC formation MST signal, replicates” value (mRNA 0.5 µM) was 993.30 and 987.37 and 989.30 and the “30S IC formation MST signal, Average” value (mRNA 1 µM) was 1011.86. The “30S IC formation MST signal, replicates” value (mRNA 1 µM) was 1011.95 and 1011.22 and 1012.39, the “30S IC formation MST signal, Average” value (mRNA 2 µM) was 1036.12 and the “30S IC formation MST signal, replicates” value (mRNA 2 µM) was 1039.43 and 1034.52 and 1034.41.
